We go through 8 molecules from paper PMC9205888, “Efficient discrimination against RNA-containing primers by human DNA polymerase ε”.

Series [1] addresses T1, hPolεCD (DNA polymerase ε catalytic domain, exo-) (Homo sapiens, UniProt Q07864 27-1172, D275N;E277Q;del185-209). Put plainly: BLI; 100 mM NaCl, no dTTP/Mg2+; BLI (Octet K2): 30 mM Tris-Hepes pH 7.8, 100-150 mM NaCl, 2 mM TCEP, 0.002% Tween 20, 23 °C; EMSA: 20 mM Tris-Hepes pH 7.8, 100 mM NaCl, 2% glycerol, 2 mM TCEP, 0.2 mg/mL BSA, room temperature. As to conditions: protein: recombinant; tags: none in final protein (N-terminal His6-Sumo cleaved); label: 5' BiotinTEG on template; template 5' overhang 9 nt and 3' overhang 3 nt.

Series [2] addresses T1, hPolεCD (DNA polymerase ε catalytic …). Kind of series: EMSA; 100 mM NaCl, 0.5 µM DNA; active fraction titration (55.4 ± 4.3%); BLI (Octet K2): 30 mM Tris-Hepes pH 7.8, 100-150 mM NaCl, 2 mM TCEP, 0.002% Tween 20, 23 °C; EMSA: 20 mM Tris-Hepes pH 7.8, 100 mM NaCl, 2% glycerol, 2 mM TCEP, 0.2 mg/mL BSA, room temperature. As to conditions: protein: recombinant; tags: none in final protein (N-terminal His6-Sumo cleaved); label: 5' Cy3 on primer; template 5' overhang 5 nt.

For series [3] the target is unchanged. Kind of series: BLI; 150 mM NaCl, no dTTP/Mg2+; BLI (Octet K2): 30 mM Tris-Hepes pH 7.8, 100-150 mM NaCl, 2 mM TCEP, 0.002% Tween 20, 23 °C; EMSA: 20 mM Tris-Hepes pH 7.8, 100 mM NaCl, 2% glycerol, 2 mM TCEP, 0.2 mg/mL BSA, room temperature. Conditions: protein: recombinant; tags: none in final protein (N-terminal His6-Sumo cleaved); label: 5' BiotinTEG on template; template 5' overhang 9 nt and 3' overhang 3 nt. Background: In BLI a coated tip is dipped into the sample, and binding shifts an interference pattern.

For series [4] the target is unchanged. Put plainly: BLI; 100 mM NaCl, 50 µM dTTP, 5 mM Mg2+; BLI (Octet K2): 30 mM Tris-Hepes pH 7.8, 100-150 mM NaCl, 2 mM TCEP, 0.002% Tween 20, 23 °C; EMSA: 20 mM Tris-Hepes pH 7.8, 100 mM NaCl, 2% glycerol, 2 mM TCEP, 0.2 mg/mL BSA, room temperature. As to conditions: protein: recombinant; tags: none in final protein (N-terminal His6-Sumo cleaved); label: 5' BiotinTEG on template; template 5' overhang 9 nt and 3' overhang 3 nt.

For series [5] the target is unchanged. Kind of series: BLI; 125 mM NaCl, no dTTP/Mg2+; BLI (Octet K2): 30 mM Tris-Hepes pH 7.8, 100-150 mM NaCl, 2 mM TCEP, 0.002% Tween 20, 23 °C; EMSA: 20 mM Tris-Hepes pH 7.8, 100 mM NaCl, 2% glycerol, 2 mM TCEP, 0.2 mg/mL BSA, room temperature. As to conditions: protein: recombinant; tags: none in final protein (N-terminal His6-Sumo cleaved); label: 5' BiotinTEG on template; template 5' overhang 9 nt and 3' overhang 3 nt.

A word on the Kd: it is the concentration at which binding is half-saturated.

T1 sequence (Q07864 other isoform, or with tags, fused parts or gaps D275N;E277Q;del185-209): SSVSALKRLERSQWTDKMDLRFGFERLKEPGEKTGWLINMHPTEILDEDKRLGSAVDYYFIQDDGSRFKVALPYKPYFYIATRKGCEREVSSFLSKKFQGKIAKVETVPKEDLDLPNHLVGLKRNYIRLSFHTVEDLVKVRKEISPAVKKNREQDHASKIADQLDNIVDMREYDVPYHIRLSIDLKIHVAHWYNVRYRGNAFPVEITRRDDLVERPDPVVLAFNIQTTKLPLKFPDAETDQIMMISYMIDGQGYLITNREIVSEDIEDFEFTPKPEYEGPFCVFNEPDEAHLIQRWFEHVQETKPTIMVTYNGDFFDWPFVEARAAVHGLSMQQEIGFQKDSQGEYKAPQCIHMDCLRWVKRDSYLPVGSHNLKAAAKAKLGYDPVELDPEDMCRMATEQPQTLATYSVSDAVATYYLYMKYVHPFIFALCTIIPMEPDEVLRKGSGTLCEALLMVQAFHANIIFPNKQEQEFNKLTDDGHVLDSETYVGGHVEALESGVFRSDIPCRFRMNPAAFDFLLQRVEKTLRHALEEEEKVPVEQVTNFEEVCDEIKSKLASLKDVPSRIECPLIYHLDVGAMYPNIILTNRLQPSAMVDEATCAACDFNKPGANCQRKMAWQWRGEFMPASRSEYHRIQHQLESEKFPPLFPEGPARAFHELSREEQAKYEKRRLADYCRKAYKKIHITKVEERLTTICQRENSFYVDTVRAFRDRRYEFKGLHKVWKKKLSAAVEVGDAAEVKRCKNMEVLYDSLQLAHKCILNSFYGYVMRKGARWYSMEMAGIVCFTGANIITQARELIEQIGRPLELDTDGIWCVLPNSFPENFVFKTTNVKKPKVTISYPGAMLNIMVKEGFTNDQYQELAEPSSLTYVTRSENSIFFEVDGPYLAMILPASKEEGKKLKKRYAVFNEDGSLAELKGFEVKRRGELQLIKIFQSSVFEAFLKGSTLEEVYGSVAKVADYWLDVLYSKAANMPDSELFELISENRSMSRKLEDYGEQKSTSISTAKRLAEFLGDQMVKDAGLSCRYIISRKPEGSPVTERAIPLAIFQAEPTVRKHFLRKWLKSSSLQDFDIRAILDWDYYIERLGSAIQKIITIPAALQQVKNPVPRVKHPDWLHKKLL

B1: R6-D5 template:primer (mixed)
DNA: AATACATAAGCGCTCCAGGCAAT
RNA: GCCUGGAGCGC
modifications: primer nt 1-6 RNA, nt 7-11 DNA, 3' ddC
For B1, in series [1], the Kd stood at 0.0698 ± 0.0064 µM.

B2: R8-D3 template:primer (mixed)
DNA: AATACATAAGCGCTCCAGGCAAT
RNA: GCCUGGAGCGC
modifications: primer nt 1-8 RNA, nt 9-11 DNA, 3' ddC
In the case of B2, the Kd in series [1] stood at 0.0625 ± 0.0061 µM.

B3: D10-R1 template:primer (mixed)
DNA 1: AATACATAAGCGCTCCAGGCAAT
DNA 2: GCCTGGAGCGC
modifications: primer nt 1-10 DNA, nt 11 3'-deoxy-C (2'-OH)
As for B3, in series [1], the Kd stood at 0.0456 ± 0.0061 µM.

B4: EMSA D15 template:primer (dsDNA)
DNA 1: ATTATGGCAGCTCGGAGTCC
DNA 2: GGACTCCGAGCTGCC
B4: in series [2], the binding result was “binds”.

B5: R10-D1 template:primer (mixed)
DNA: AATACATAAGCGCTCCAGGCAAT
RNA: GCCUGGAGCGC
modifications: primer nt 1-10 RNA, nt 11 2',3'-dideoxy-C
For B5, the Kd in series [1] was determined as 0.073 ± 0.014 µM.

B6: R11 template:primer (DNA:RNA)
DNA: AATACATAAGCGCTCCAGGCAAT
RNA: GCCUGGAGCGC
modifications: RNA primer
As for B6, the dissociation constant Kd in series [1] was 0.0658 ± 0.0088 µM.

B7: D11 template:primer (dsDNA)
DNA 1: AATACATAAGCGCTCCAGGCAAT
DNA 2: GCCTGGAGCGC
modifications: primer 3'-terminal 2',3'-dideoxy-C
In the case of B7, the Kd in series [3] is 1.52 ± 0.091 µM; in series [1], 0.0614 ± 0.012 µM; in series [4], 0.12 ± 0.011 µM; in series [5], 0.532 ± 0.053 µM.

B8: R4-D7 template:primer (mixed)
DNA: AATACATAAGCGCTCCAGGCAAT
RNA: GCCUGGAGCGC
modifications: primer nt 1-4 RNA, nt 5-11 DNA, 3' ddC
As for B8, the Kd in series [1] worked out at 0.0586 ± 0.0013 µM; in series [4], 0.083 ± 0.0033 µM.
